In data set [1] the target is Lac repressor (LacI)-peptide fusion, full length (Escherichia coli) (UniProt P03023). The note with it: plasmid panning on D32.39 antibody; deletion of lacOs, near background.
Data set [2] has as its target headpiece dimer A4.5 (mutant) Q18R (second headpiece) (Escherichia coli) (UniProt P03023). As to conditions: panning of protein-plasmid complex.
The next data set concerns DNA. The note with it: cited from earlier work.
For data set [3], the target named is headpiece dimer B4.5 (mutant) Q18R (second headpiece) (Escherichia coli) (UniProt P03023). As to conditions: panning Exp. 3; lacOs plasmid complex stability, site of binding not established.
Data set [4] concerns the target Lac repressor (LacI)-peptide fusion, full length (Escherichia coli, UniProt P03023 P03023:1-360). The data set can be described thus: panning Exp. 3, partial (B) induction. As to conditions: chain copies: 4 (stated tetramer).
Data set [5] deals with plasmid pCMG14 fragments / lacOs-containing fragments. The data set can be described thus: Protein-DNA binding experiments with plasmid fragments (gel shift, 32P-labeled fragments). The note with it: over-expressed polypeptides; with unlabelled herring DNA competitor. The procedure:
To determine the plasmid binding site(s) of headpiece dimer mutant A4.5 and the non-mutant B7, several protein-DNA binding experiments were performed.
On the technique in general: Mobility shift assays separate free from complexed probe on a gel.

In the next data set the test system is wild-type lacO. The note with it: single wild-type lacO; cited from earlier work.
A further data set concerns lacZYA. The data set can be described thus: Repression of chromosomal lacZYA, direct β-galactosidase assay in strain ARI 20. The class given is cell-based, E. coli. From the text:
One can estimate the lacI expression level necessary to fill the available binding sites in a typical plasmid p.MC5 derivative by observing the behavior of strain ARI 20 (lacI^- lacZYA^+) transformed with pMC3 or pMC5 (encoding only the linker peptide GADGA [SEQ. ID NO.:65]). Because the lacO sites in plasmids pMC3 and pMC5 have higher affinity than those in the lacZYA operon, the available repressor should fill the plasmid sites first. Substantial repression of lacZYA should be observed only if there is an excess of repressor beyond the amount needed to fill the plasmid sites. As shown by color level on X-gal indicator plates and direct assays of β-galactosidase (see Miller, Experiments in Molecular Genetics (Cold Spring Harbor Laboratory, Cold Spring Harbor, N.Y. (1972)), incorporated herein by reference), the amount of repressor produced by pMC5 is sufficient to fill the lacO sites and repress greater than 200 fold lacZYA in ARI 20 host cells during growth in normal LB medium (2.4 units compared to 500 units from ARI 20 transformed with vector pBAD18, which has no lacI). The repressor encoded by pMC3 was partially inactivated by the addition of the dynorphin B tail, allowing about 10 fold higher expression of lacZYA (37 units). […]

Where two headings read alike, the source gives them in different places.

For plasmid lacking lacOs, the binding signal (fold drop in enrichment) in data set [1] was 446. Moreover, the binding signal (fold enrichment) in data set [2] (lacOs not required) was 44.

In the case of “arc repressor: arc repressor of phage P22 (MKGMSKMPQFNLRWPREVLDLVRKVAEENGRSVNSEIYQRVMESFKKEGRIGA; UniProt P03050 1-53, looked up)”, the dissociation half-life in the data set on DNA is 1.33 h. In data set [2] (plasmid with lacOs), AATTGTGAGCGCTCACAATT (double strand) registered a binding signal (fold enrichment) of 43. The activity (fold enrichment) in data set [3] was found to be 850.

B1: lacOs (symmetric lac operator) on plasmid or plasmid fragment (dsDNA)
DNA 1: AATTGTGAGCGCTCACAATT
DNA 2: AATTGTGAGCGCTCACAATT
In data set [4], B1 gave an activity of 155 fold enrichment.

B2: lac repressor: 37 kDa product of the E. coli lacI gene, binds lacO (protein, UniProt P03023 1-360, looked up)
Lactose operon repressor: MKPVTLYDVAEYAGVSYQTVSRVVNQASHVSAKTREKVEAAMAELNYIPNRVAQQLAGKQSLLIGVATSSLALHAPSQIVAAIKSRADQLGASVVVSMVERSGVEACKAAVHNLLAQRVSGLIINYPLDDQDAIAVEAACTNVPALFLDVSDQTPINSIIFSHEDGTRLGVEHLVALGHQQIALLAGPLSSVSARLRLAGWHKYLTRNQIQPIAEREGDWSAMSGFQQTMQMLNEGIVPTAMLVANDQMALGAMRAITESGLRVGADISVVGYDDTEDSSCYIPPLTTIKQDFRLLGQTSVDRLLQLSQGQAVKGNQLLPVSLVKRKTTLAPNTQTASPRALADSLMQLARQVSRLESGQ
Consider B2, for which, in data set [5], the “binding to 32P-labeled plasmid fragments” value is “specific binding of lacI to lacOs -containing fragments”. Besides, in the data set on wild-type lacO, the association rate constant was 7e+09 M⁻¹ s⁻¹ and the “half-life for the lac repressor-lacO complex” value was “about 30 min”.

B3: pMC5: library plasmid encoding lac repressor with only the linker peptide GADGA (protein, UniProt P03023 1-360, looked up)
Lactose operon repressor: MKPVTLYDVAEYAGVSYQTVSRVVNQASHVSAKTREKVEAAMAELNYIPNRVAQQLAGKQSLLIGVATSSLALHAPSQIVAAIKSRADQLGASVVVSMVERSGVEACKAAVHNLLAQRVSGLIINYPLDDQDAIAVEAACTNVPALFLDVSDQTPINSIIFSHEDGTRLGVEHLVALGHQQIALLAGPLSSVSARLRLAGWHKYLTRNQIQPIAEREGDWSAMSGFQQTMQMLNEGIVPTAMLVANDQMALGAMRAITESGLRVGADISVVGYDDTEDSSCYIPPLTTIKQDFRLLGQTSVDRLLQLSQGQAVKGNQLLPVSLVKRKTTLAPNTQTASPRALADSLMQLARQVSRLESGQ
modifications: C-terminal GADGA linker peptide
As for B3, in the data set on lacZYA (ARI 20, LB medium, compared with vector pBAD18 (no lacI)), the “repression of lacZYA” value is reported as “greater than 200 fold”. This molecule had a β-galactosidase in the data set with lacZYA (ARI 20 host cells, normal LB medium) of 2.4 units.

Values taken from patent publication US6156511A, “Peptide library and screening method” (Affymax Technologies N.V., priority 1998, dated 2000).
